Data published in article PMC3702553 (2013).

B1: full length wild-type GST-SNX9 (sorting nexin 9) [not stated] / clathrin heavy chain (CHC) [human (endogenous in HeLa)] (parent complex)
chain 1: MATKARVMYDFAAEPGNNELTVNEGEIITITNPDVGGGWLEGRNIKGERGLVPTDYVEILPSDGKDQFSCGNSVADQAFLDSLSASTAQASSSAASNNHQVGSGNDPWSAWSASKSGNWESSEGWGAQPEGAGAQRNTNTPNNWDTAFGHPQAYQGPATGDDDDWDEDWDGPKSSSYFKDSESADAGGAQRGNSRASSSSMKIPLNKFPGFAKPGTEQYLLAKQLAKPKEKIPIIVGDYGPMWVYPTSTFDCVVADPRKGSKMYGLKSYIEYQLTPTNTNRSVNHRYKHFDWLYERLLVKFGSAIPIPSLPDKQVTGRFEEEFIKMRMERLQAWMTRMCRHPVISESEVFQQFLNFRDEKEWKTGKRKAERDELAGVMIFSTMEPEAPDLDLVEIEQKCEAVGKFTKAMDDGVKELLTVGQEHWKRCTGPLPKEYQKIGKALQSLATVFSSSGYQGETDLNDAITEAGKTYEEIASLVAEQPKKDLHFLMECNHEYKGFLGCFPDIIGTHKGAIEKVKESDKLVATSKITLQDKQNMVKRVSIMSYALQAEMNHFHSNRIYDYNSVIRLYLEQQVQFYETIAEKLRQALSRFPVM
chain 2: MAQILPIRFQEHLQLQNLGINPANIGFSTLTMESDKFICIREKVGEQAQVVIIDMNDPSNPIRRPISADSAIMNPASKVIALKAGKTLQIFNIEMKSKMKAHTMTDDVTFWKWISLNTVALVTDNAVYHWSMEGESQPVKMFDRHSSLAGCQIINYRTDAKQKWLLLTGISAQQNRVVGAMQLYSVDRKVSQPIEGHAASFAQFKMEGNAEESTLFCFAVRGQAGGKLHIIEVGTPPTGNQPFPKKAVDVFFPPEAQNDFPVAMQISEKHDVVFLITKYGYIHLYDLETGTCIYMNRISGETIFVTAPHEATAGIIGVNRKGQVLSVCVEEENIIPYITNVLQNPDLALRMAVRNNLAGAEELFARKFNALFAQGNYSEAAKVAANAPKGILRTPDTIRRFQSVPAQPGQTSPLLQYFGILLDQGQLNKYESLELCRPVLQQGRKQLLEKWLKEDKLECSEELGDLVKSVDPTLALSVYLRANVPNKVIQCFAETGQVQKIVLYAKKVGYTPDWIFLLRNVMRISPDQGQQFAQMLVQDEEPLADITQIVDVFMEYNLIQQCTAFLLDALKNNRPSEGPLQTRLLEMNLMHAPQVADAILGNQMFTHYDRAHIAQLCEKAGLLQRALEHFTDLYDIKRAVVHTHLLNPEWLVNYFGSLSVEDSLECLRAMLSANIRQNLQICVQVASKYHEQLSTQSLIELFESFKSFEGLFYFLGSIVNFSQDPDVHFKYIQAACKTGQIKEVERICRESNCYDPERVKNFLKEAKLTDQLPLIIVCDRFDFVHDLVLYLYRNNLQKYIEIYVQKVNPSRLPVVIGGLLDVDCSEDVIKNLILVVRGQFSTDELVAEVEKRNRLKLLLPWLEARIHEGCEEPATHNALAKIYIDSNNNPERFLRENPYYDSRVVGKYCEKRDPHLACVAYERGQCDLELINVCNENSLFKSLSRYLVRRKDPELWGSVLLESNPYRRPLIDQVVQTALSETQDPEEVSVTVKAFMTADLPNELIELLEKIVLDNSVFSEHRNLQNLLILTAIKADRTRVMEYINRLDNYDAPDIANIAISNELFEEAFAIFRKFDVNTSAVQVLIEHIGNLDRAYEFAERCNEPAVWSQLAKAQLQKGMVKEAIDSYIKADDPSSYMEVVQAANTSGNWEELVKYLQMARKKARESYVETELIFALAKTNRLAELEEFINGPNNAHIQQVGDRCYDEKMYDAAKLLYNNVSNFGRLASTLVHLGEYQAAVDGARKANSTRTWKEVCFACVDGKEFRLAQMCGLHIVVHADELEELINYYQDRGYFEELITMLEAALGLERAHMGMFTELAILYSKFKPQKMREHLELFWSRVNIPKVLRAAEQAHLWAELVFLYDKYEEYDNAIITMMNHPTDAWKEGQFKDIITKVANVELYYRAIQFYLEFKPLLLNDLLMVLSPRLDHTRAVNYFSKVKQLPLVKPYLRSVQNHNNKSVNESLNNLFITEEDYQALRTSIDAYDNFDNISLAQRLEKHELIEFRRIAAYLFKGNNRWKQSVELCKKDSLYKDAMQYASESKDTELAEELLQWFLQEEKRECFGACLFTCYDLLRPDVVLETAWRHNIMDFAMPYFIQVMKEYLTKVDKLDASESLRKEEEQATETQPIVYGQPQLMLTAGPSVAVPPQAPFGYGYTAPPYGQPQPGFGYSM

Variants of: B1
Assay: GST pull-down, densitometry of immunoblots; lysates from asynchronously growing HeLa cells; 3-4 independent experiments; parent: 1; read off a plot

Variant	ratio to parent
chain 1 W108S, chain 1 W111S	~0.06
chain 1 W165S, chain 1 W169S	~0.29
chain 1 W108S	~0.44
chain 1 W165S	~0.05
